Experimental data reported in PMC8748794.

Target: Spt16/Pob3 heterodimer (yeast FACT), full length (yeast) (UniProt P32558)
Sequence of UniProt P32558 (P32558 whole entry, chain 1 of 2): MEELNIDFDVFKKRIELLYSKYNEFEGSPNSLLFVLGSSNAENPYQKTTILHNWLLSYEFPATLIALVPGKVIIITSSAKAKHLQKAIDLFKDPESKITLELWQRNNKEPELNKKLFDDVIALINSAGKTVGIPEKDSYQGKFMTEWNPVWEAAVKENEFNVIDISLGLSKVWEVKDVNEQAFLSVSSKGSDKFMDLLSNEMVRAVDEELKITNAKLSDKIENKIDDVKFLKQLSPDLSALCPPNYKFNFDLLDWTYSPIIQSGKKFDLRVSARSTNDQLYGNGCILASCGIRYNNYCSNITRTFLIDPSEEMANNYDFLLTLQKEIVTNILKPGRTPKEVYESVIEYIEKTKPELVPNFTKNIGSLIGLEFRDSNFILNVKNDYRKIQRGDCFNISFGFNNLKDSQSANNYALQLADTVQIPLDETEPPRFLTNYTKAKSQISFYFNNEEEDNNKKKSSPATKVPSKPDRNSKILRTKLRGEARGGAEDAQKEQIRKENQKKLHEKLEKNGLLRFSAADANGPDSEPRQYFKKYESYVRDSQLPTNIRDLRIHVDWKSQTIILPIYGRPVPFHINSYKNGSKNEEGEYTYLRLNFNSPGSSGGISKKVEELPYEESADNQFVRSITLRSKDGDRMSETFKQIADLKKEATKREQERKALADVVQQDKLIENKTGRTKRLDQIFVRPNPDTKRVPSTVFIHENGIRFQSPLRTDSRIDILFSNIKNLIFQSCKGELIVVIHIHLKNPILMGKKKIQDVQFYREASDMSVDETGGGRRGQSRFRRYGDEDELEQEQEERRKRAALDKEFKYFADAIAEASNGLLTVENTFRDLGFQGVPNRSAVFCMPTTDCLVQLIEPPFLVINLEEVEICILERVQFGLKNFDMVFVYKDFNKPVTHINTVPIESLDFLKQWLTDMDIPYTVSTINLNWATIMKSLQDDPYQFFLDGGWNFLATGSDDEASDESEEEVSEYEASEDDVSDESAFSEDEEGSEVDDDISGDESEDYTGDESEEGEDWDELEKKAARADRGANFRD
Sequence of UniProt P32558 (Q04636 whole entry, chain 2 of 2, further chain): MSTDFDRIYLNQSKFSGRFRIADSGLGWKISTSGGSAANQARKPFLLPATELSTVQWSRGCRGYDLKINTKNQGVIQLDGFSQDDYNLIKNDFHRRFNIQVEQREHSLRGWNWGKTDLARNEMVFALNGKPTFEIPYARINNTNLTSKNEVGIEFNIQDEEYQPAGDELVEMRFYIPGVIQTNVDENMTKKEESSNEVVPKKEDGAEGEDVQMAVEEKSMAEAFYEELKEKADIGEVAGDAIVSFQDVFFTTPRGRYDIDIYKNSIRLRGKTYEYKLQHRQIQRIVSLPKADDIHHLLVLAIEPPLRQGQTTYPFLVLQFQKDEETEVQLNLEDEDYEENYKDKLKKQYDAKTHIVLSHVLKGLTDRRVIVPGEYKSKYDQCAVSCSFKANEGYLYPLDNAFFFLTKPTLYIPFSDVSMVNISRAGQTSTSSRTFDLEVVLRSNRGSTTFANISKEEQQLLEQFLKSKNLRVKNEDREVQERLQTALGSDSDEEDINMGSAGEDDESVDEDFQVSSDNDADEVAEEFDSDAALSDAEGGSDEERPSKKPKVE

- fraction of FACT particles in the open conformation (>90°) by negative-stain EM; 36% for FACT alone: 51%
Substance: Nhp6 (non-histone protein), HMGB-domain factor (from UniProt P11632 1-93) (natural protein)
